Here are results for 3 variants from publication PMC4996939.

B1: HA-tagged TGF-β type I receptor ALK5 [not stated] / Myc-tagged mouse Fscn1 [mouse] (parent)
chain 1: not shown
chain 2: LQCFCHLCTKDNFTCVTDGLCFVSVTETTDKVIHNSMCIAEIDLIPRDRPFVCAPSSKTGSVTTTYCCNQDHCNKIELPTTVKSSPGLGPVELAAVIAGPVCFVCISLMLMVYICHNRTVIHHRVPNEEDPSLDRPFISEGTTLKDLIYDMTTSGSGSGLPLLVQRTIARTIVLQESIGKGRFGEVWRGKWRGEEVAVKIFSSREERSWFREAEIYQTVMLRHENILGFIAADNKDNGTWTQLWLVSDYHEHGSLFDYLNRYTVTVEGMIKLALSTASGLAHLHMEIVGTQGKPAIAHRDLKSKNILVKKNGTCCIADLGLAVRHDSATDTIDIAPNHRVGTKRYMAPEVLDDSINMKHFESFKRADIYAMGLVFWEIARRCSIGGIHEDYQLPYYDLVPSDPSVEEMRKVVCEQKLRPNIPNRWQSCEALRVMAKIMRECWYANGAARLTALRIKKTLSQLSQQEGIKM
B2: HA-tagged Activin/Nodal type I receptor ALK4 [not stated] / Myc-tagged mouse Fscn1 [mouse] (parent)
chain 1: not shown
chain 2: SGPRGVQALLCACTSCLQANYTCETDGACMVSIFNLDGMEHHVRTCIPKVELVPAGKPFYCLSSEDLRNTHCCYTDYCNRIDLRVPSGHLKEPEHPSMWGPVELVGIIAGPVFLLFLIIIIVFLVINYHQRVYHNRQRLDMEDPSCEMCLSKDKTLQDLVYDLSTSGSGSGLPLFVQRTVARTIVLQEIIGKGRFGEVWRGRWRGGDVAVKIFSSREERSWFREAEIYQTVMLRHENILGFIAADNKDNGTWTQLWLVSDYHEHGSLFDYLNRYTVTIEGMIKLALSAASGLAHLHMEIVGTQGKPGIAHRDLKSKNILVKKNGMCAIADLGLAVRHDAVTDTIDIAPNQRVGTKRYMAPEVLDETINMKHFDSFKCADIYALGLVYWEIARRCNSGGVHEEYQLPYYDLVPSDPSIEEMRKVVCDQKLRPNIPNWWQSYEALRVMGKMMRECWYANGAARLTALRIKKTLSQLSVQEDVKI

In one test the parent is B1. Nature of the test: co-immunoprecipitation (IP anti-Myc, IB anti-HA) with band quantification. To be noted: transfected cells in 60 mm dishes, ALK5 KR-HA 2 μg, Myc-mFscn1 1.5 μg.
For the variant chain 2 K199R, the ratio to parent was 0.56.

The same test, now with this note: HEK293 cells, 60 mm dishes, CA-ALK5-HA 2 μg, Myc-mFscn1 1.5 μg, no TGF-β1 or Activin A in the CA lane.
As for chain 2 T171D, the ratio to parent amounted to 1.87.

Variants of B2 are the subject of the next test. The description is as above. The settings on record: HEK293 cells, 60 mm dishes, CA-ALK4-HA 2 μg, Myc-mFscn1 1.5 μg, no TGF-β1 or Activin A in the CA lane.
In the case of chain 2 T183D, the ratio to parent was 2.34.
